The source of these data is US20230242876A1 (SHANGHAI SINOBIO BIOTECH, published 2023).

Test in all cases: ELISA, antigen coated at 1 ug/ml, binder titrated from 10 ug/ml, OD450
(In an ELISA, binding on a coated surface is turned into a signal by an enzyme label.)

The target of one assay is T1, CD3-OX40L BsM_M.
T1 construct: N-glycosylated; also called anti-CD3/OX40L bispecific molecule of monomeric form

A further assay addresses T2, CD3-OX40L BsM_D.
T2 construct: glycosylated, disulfide-linked dimer; also called anti-CD3/OX40L bispecific molecule of dimeric form

Another assay has as its target T3, CD3-B7RP-1 BsM_M.
T3 construct: N-glycosylated on the B7RP-1 part; also called anti-CD3/B7RP-1 bispecific molecule of monomeric form

The next assay has as its target T4, CD3-B7RP-1 BsM_D.
T4 construct: glycosylated, disulfide-linked dimer; also called anti-CD3/B7RP-1 bispecific molecule of dimeric form

Another assay addresses T5, CD3-GITRL BsM_M.
T5 construct: glycosylated; also called anti-CD3/GITRL bispecific molecule of monomeric form

The target of a further assay is T6, CD3-GITRL BsM_D.
T6 construct: glycosylated, disulfide-linked dimer; also called anti-CD3/GITRL bispecific molecule of dimeric form

The next assay deals with T7, CD3-CD70 BsM_M.
T7 construct: N-glycosylated; also called anti-CD3/CD70 bispecific molecule of monomeric form

The target of a further assay is T8, CD3-CD70 BsM_D.
T8 construct: glycosylated, disulfide-linked dimer; also called anti-CD3/CD70 bispecific molecule of dimeric form

B1: human OX40-hFc recombinant protein (Fc fusion)
chain: LHCVGDTYPSNDRCCHECRPGNGMVSRCSRSQNTVCRPCGPGFYNDVVSSKPCKPCTWCNLRSGSERKQLCTATQDTVCRCRAGTQPLDSYKPGVDCAPCPPGHFSPGDNQACKPWTNCTLAGKHTLQPASNSSDAICEDRDPPATQPQETQGPPARPITVQPTEAWPRTSQGPSTRPVEVPGGRA
notes: Purchased from Novoprotein; also called OX40-hFc recombinant antigen; not shown: human Fc (hFc) of the purchased fusion
As for B1, the binding result with CD3-OX40L BsM_M and with CD3-OX40L BsM_D was “binds” each time.

B2: human ICOS-hFc recombinant protein (Fc fusion)
chain: EINGSANYEMFIFHNGGVQILCKYPDIVQQFKMQLLKGGQILCDLTKTKGSGNTVSIKSLKFCHSQLSNNSVSFFLYNLDHSHANYYFCNLSIFDPPPFKVTLTGGYLHIYESQLCCQLK
notes: Purchased from Novoprotein; also called ICOS-hFc recombinant antigen; not shown: human Fc (hFc) of the purchased fusion
As to B2, the binding result in the assay with CD3-B7RP-1 BsM_M and with CD3-B7RP-1 BsM_D was “binds” in each case.

B3: human GITR-hFc recombinant protein (Fc fusion)
chain: QRPTGGPGCGPGRLLLGTGTDARCCRVHTTRCCRDYPGEECCSEWDCMCVQPEFHCGDPCCTTCRHHPCPPGQGVQSQGKFSFGFQCIDCASGTFSGGHEGHCKPWTDCTQFGFLTVFPGNKTHNAVCVPGSPPAE
notes: Purchased from Novoprotein; also called GITR-hFc recombinant antigen; not shown: human Fc (hFc) of the purchased fusion
With B3, the binding result with CD3-GITRL BsM_M and in the assay with CD3-GITRL BsM_D was “binds” each time.

B4: human CD27-hFc recombinant protein (Fc fusion)
chain: TPAPKSCPERHYWAQGKLCCQMCEPGTFLVKDCDQHRKAAQCDPCIPGVSFSPDHHTRPHCESCRHCNSGLLVRNCTITANAECACRNGWQCRDKECTECDPLPNPSLTARSSQALSPHPQPTHLPYVSEMLEARTAGHMQTLADFRQLPARTLSTHWPPQRSLCSSDFIR
notes: Purchased from Novoprotein; also called CD27-hFc recombinant antigen; not shown: human Fc (hFc) of the purchased fusion
As for B4, the binding result with CD3-CD70 BsM_M and with CD3-CD70 BsM_D was “binds” throughout.
